Some results are limits rather than exact numbers.

Two compounds from publication PMC3352095, “Structure and function of FusB: an elongation factor G-binding fusidic acid resistance protein active in ribosomal translocation and recycling” (Open Biology, 2012) can be followed below.

One test has as its target T1, S. aureus EF-G (Staphylococcus aureus, UniProt P68790).
T1 construct: gene fusA; full-length wild type, recombinant; assayed on E. coli 70S ribosomes with E. coli translation factors
Nature of the test: tripeptide (fMet-Phe-Phe) formation, quenched at […] s, HPLC. It counts as biochemical.

Test [1] addresses S. aureus elongation factor G (S. aureus) (UniProt P68790). Nature of the test: SEC; 2 nmol EF-G (wild-type or hybrid) with or without 4 nmol FusB (twofold excess) in 100 µl gel filtration buffer (20 mM Tris pH 7.8, 300 mM NaCl) on Superdex200 10/300; shift in elution volume of the EF-G peak as read-out; hybrid G also with 2.5-fold excess of FusB.
Test [2] has the same target.
The target is the same in test [3]. This is another data set of the same source.
Test [4] shares this target. This is another data set of the same source.

Turning to `CC(=O)O[C@H]1C[C@@]2(C)[C@@H](C[C@@H](O)[C@H]3[C@@]4(C)CC[C@@H](O)[C@@H](C)[C@@H]4CC[C@@]32C)/C1=C(\CCC=C(C)C)C(=O)O` [FA, fusidic acid], the inhibition (usually how much of the control response was suppressed) at 150 µM against S. aureus EF-G is 50%.
Consider FusB (natural protein), for which, in test [1], the stoichiometry N (in general, the number of molecules, sites or subunits per partner or assembly) came out at 1. In addition, the multiple- and single-round luciferase synthesis in a reconstituted E. coli transcription-translation system with S. aureus EF-G, FA 20 µM, FusB 1 µM; increase against the reactions with only FA in test [2] is under 5 fold. In test [3], this compound returned a rate of splitting of the post-termination complex by S. aureus EF-G and RRF (Rayleigh light scattering) with FA 10 µM and FusB 1 µM (0.15 s^-1 without FA; blocked with FA alone) of 0.02 s⁻¹. The compound also returned an extent of tripeptide formation in 10 s with S. aureus EF-G, FA 150 µM (50 per cent with FA alone), FusB 1 µM in test [4] of 75 per cent.
